Experimental data reported in patent US20160108416.

What was measured:
atToc159 (At4g02510) = atToc159 (At4g02510) (UniProt O81283)
atToc33 (At1g02280) = target: T1, atToc33 (At1g02280) (UniProt O23680)
T1 sequence: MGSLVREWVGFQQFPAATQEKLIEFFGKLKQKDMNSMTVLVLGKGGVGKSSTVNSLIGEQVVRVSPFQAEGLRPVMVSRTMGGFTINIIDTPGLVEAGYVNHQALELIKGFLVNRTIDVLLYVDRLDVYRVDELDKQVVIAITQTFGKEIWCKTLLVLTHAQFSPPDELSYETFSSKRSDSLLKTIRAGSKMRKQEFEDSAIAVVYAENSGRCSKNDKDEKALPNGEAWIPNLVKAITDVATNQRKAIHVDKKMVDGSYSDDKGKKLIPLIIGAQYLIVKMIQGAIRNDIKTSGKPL

atToc75-III (At3g46740) = target: T2, atToc75-III (At3g46740) (UniProt Q9STE8)
T2 sequence: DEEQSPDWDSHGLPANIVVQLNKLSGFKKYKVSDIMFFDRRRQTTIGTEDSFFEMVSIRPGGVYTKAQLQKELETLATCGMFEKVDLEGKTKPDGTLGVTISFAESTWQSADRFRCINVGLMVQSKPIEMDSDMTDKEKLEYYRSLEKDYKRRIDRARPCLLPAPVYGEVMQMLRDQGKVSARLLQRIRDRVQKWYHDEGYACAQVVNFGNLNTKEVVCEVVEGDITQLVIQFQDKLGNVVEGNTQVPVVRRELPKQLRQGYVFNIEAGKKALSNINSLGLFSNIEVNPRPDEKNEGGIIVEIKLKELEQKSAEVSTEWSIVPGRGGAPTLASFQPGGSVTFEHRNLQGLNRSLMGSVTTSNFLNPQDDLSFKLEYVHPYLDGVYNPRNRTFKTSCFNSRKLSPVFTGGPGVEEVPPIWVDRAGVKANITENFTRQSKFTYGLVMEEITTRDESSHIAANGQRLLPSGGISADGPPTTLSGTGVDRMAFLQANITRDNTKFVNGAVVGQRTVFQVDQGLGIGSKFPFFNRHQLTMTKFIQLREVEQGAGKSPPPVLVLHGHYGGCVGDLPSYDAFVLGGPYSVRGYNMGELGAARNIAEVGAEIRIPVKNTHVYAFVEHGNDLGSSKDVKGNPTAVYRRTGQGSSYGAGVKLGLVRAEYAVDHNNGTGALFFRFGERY

UniProt O81283, sequence (O81283 whole entry): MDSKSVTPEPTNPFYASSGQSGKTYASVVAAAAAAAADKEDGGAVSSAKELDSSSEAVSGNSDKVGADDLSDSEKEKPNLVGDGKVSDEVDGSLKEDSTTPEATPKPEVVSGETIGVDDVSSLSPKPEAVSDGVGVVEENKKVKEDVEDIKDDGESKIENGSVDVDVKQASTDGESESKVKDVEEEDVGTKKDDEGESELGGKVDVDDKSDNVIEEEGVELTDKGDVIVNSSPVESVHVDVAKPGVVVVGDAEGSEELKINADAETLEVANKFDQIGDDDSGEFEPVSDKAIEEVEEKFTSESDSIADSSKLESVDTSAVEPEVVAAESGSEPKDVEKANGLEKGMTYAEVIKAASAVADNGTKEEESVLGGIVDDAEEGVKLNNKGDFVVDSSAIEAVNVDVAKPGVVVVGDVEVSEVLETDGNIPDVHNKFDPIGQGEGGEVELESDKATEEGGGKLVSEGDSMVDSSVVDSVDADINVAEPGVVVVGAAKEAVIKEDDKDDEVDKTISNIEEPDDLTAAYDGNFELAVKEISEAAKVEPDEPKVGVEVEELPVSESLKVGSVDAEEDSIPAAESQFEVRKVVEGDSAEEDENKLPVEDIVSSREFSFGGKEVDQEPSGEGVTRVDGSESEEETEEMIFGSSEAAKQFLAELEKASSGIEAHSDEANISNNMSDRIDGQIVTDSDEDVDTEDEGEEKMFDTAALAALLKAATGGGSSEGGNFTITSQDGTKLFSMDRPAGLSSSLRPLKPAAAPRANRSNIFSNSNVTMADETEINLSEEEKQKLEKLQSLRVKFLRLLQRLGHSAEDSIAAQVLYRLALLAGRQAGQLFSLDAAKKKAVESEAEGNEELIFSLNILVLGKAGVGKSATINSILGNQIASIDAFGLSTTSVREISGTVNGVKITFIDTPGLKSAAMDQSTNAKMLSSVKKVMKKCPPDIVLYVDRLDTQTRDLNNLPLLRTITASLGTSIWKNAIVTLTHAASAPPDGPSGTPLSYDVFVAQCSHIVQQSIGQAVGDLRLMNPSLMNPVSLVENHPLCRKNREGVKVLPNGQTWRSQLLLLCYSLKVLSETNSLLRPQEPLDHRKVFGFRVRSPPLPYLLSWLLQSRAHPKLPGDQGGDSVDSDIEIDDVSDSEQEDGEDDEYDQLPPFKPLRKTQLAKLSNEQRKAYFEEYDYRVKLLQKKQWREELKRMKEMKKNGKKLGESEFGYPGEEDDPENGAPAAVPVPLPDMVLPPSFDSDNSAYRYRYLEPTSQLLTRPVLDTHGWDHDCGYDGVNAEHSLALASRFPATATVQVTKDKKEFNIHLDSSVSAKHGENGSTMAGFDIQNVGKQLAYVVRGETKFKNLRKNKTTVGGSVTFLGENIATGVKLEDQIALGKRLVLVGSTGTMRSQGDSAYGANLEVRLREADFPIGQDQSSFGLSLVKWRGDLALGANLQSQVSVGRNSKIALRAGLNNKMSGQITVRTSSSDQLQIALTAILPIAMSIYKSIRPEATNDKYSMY

B1: GST-SP1flex (SP1 intermembrane space and cytosolic domains joined by a flexible linker, N-terminal GST tag) (enzyme, part only; not given: N-terminal GST tag)
chain, part: RSSGRDAEVLETVTRVNQLKELAQLLELDSKILPFIVAVSGRVGSETPIKCEHSGIRGVIVEETAEQHFLKHNETGSWVQDSALMLSMSKEVPWFLDDGTSRVHVMGARGATGFALTVGSEVFEESGRSLVRGTLDYLQGLKMLGVKRIERVLPTGIPLTIVGEAVKDDIGEFRIQKPDRGPFYVSSKSLDQLISNLGKWSRLYKIDSVLERRRRRQLQKRVLDAAAKRAELESEGSNGTRESISDSTKKEDAVPDLCVICLEQEYNAVFVPCGHMCCCTACSSHLTSCPLCRRRIDLAVKTYRH
In vitro ubiquitination (high-molecular-weight species of radiolabelled substrate) (atToc159 (At4g02510)): for each TOC substrate the extent of ubiquitination was enhanced in the presence of SP1 | In vitro ubiquitination (high-molecular-weight species of radiolabelled substrate) (atToc33 (At1g02280)): for each TOC substrate the extent of ubiquitination was enhanced in the presence of SP1 | In vitro ubiquitination (high-molecular-weight species of radiolabelled substrate) (atToc75-III (At3g46740)): for each TOC substrate the extent of ubiquitination was enhanced in the presence of SP1
